Substrate: N
Experiment: purified protein
Details: aminating direction, co-substrate Fru6P, saturating, no GlcNAc6P activator, 37 °C

B1: Amuc-NagB (Akkermansia muciniphila ATCC BAA-835) (protein)
chain: MIGVESSRVMRAAPRKAVGRVEASVPWDFSRKYAAVHHSGTISVENARKRSKIGRVMKVETFETPQDAAKALAGEVAELIRTRAAEGKNVVLGLATGATPLPFYAELVRMHKEEGLSFANVISFNLDEYSGLDRDHPESYWYFMHTNLFNHIDIKPENINLPSGTVKDDEIAAHCAAYEQKIKDCGGIDLQILGIGRTGHIGFNEPGSDDTTVTRQVHLDELTRSDAAPAFGGIENVPTTAITMGVATIMGAREVALMAWGEKKASIVKKAVQGPVTVDVAASYLQKHPNAKFLLDKGAASLL
- Km: 41.3 ± 12.8 mM

Reference: PMC5902328
